From article PMC2808462 (Biochemistry, 2010)

Biological target: the molecule itself
Experiment: AUC

B1: human progesterone receptor B-isoform (PR-B), residues 1-933 (natural protein, UniProt P06401 1-933, looked up)
chain: MTELKAKGPRAPHVAGGPPSPEVGSPLLCRPAAGPFPGSQTSDTLPEVSAIPISLDGLLFPRPCQGQDPSDEKTQDQQSLSDVEGAYSRAEATRGAGGSSSSPPEKDSGLLDSVLDTLLAPSGPGQSQPSPPACEVTSSWCLFGPELPEDPPAAPATQRVLSPLMSRSGCKVGDSSGTAAAHKVLPRGLSPARQLLLPASESPHWSGAPVKPSPQAAAVEVEEEDGSESEESAGPLLKGKPRALGGAAAGGGAAAVPPGAAAGGVALVPKEDSRFSAPRVALVEQDAPMAPGRSPLATTVMDFIHVPILPLNHALLAARTRQLLEDESYDGGAGAASAFAPPRSSPCASSTPVAVGDFPDCAYPPDAEPKDDAYPLYSDFQPPALKIKEEEEGAEASARSPRSYLVAGANPAAFPDFPLGPPPPLPPRATPSRPGEAAVTAAPASASVSSASSSGSTLECILYKAEGAPPQQGPFAPPPCKAPGASGCLLPRDGLPSTSASAAAAGAAPALYPALGLNGLPQLGYQAAVLKEGLPQVYPPYLNYLRPDSEASQSPQYSFESLPQKICLICGDEASGCHYGVLTCGSCKVFFKRAMEGQHNYLCAGRNDCIVDKIRRKNCPACRLRKCCQAGMVLGGRKFKKFNKVRVVRALDAVALPQPVGVPNESQALSQRFTFSPGQDIQLIPPLINLLMSIEPDVIYAGHDNTKPDTSSSLLTSLNQLGERQLLSVVKWSKSLPGFRNLHIDDQITLIQYSWMSLMVFGLGWRSYKHVSGQMLYFAPDLILNEQRMKESSFYSLCLTMWQIPQEFVKLQVSQEEFLCMKVLLLLNTIPLEGLRSQTQFEEMRSSYIRELIKAIGLRQKGVVSSSQRFYQLTKLLDNLHDLVKQLHLYCLNTFIQSRALSVEFPEMMSEVIAAQLPKILAGMVKPLLFHKK
stoichiometry N: 2
